The results in this text go back to PMC3367197 (Nucleic Acids Research, 2012).

“And” between values parts separate entries of the source, which are not always exact repeats. Equal values may be shown once.

The target in series [1] is His-tagged human NPM3 (human) (UniProt O75607). Description: native gel or EMSA. A general note: In EMSA bound probe runs differently from free probe, usually more slowly.
For series [2] the target is unchanged. Description: native MS.
The series “cross-linking” concerns the molecule itself. The series can be described thus: cross-linking.
The target in a further series is His-tagged human NPM1 (human, UniProt P06748 1-294). The series can be described thus: native gel or EMSA.
Sequence of His-tagged human NPM1 (P06748 whole entry): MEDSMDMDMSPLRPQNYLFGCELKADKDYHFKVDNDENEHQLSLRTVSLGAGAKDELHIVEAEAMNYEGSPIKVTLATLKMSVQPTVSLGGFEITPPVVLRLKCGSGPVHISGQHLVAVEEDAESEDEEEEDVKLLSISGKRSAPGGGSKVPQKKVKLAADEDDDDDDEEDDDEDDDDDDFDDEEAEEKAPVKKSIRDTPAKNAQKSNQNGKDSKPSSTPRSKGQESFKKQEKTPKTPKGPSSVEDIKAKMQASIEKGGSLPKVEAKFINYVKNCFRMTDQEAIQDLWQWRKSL

Turning to “His-tagged human NPM3 (from UniProt O75607 1-178) (natural protein)”, the stoichiometry N in series [1] and in series [2] was 2 throughout.

B1: His-tagged human NPM2 (natural protein)
chain: MNLSSASSTEEKAVTTVLWGCELSQERRTWTFRPQLEGKQSCRLLLHTICLGEKAKEEMHRVEILPPANQEDKKMQPVTIASLQASVLPMVSMVGVQLSPPVTFQLRAGSGPVFLSGQERYEASDLTWEEEEEEEGEEEEEEEEDDEDEDADISLEEQSPVKQVKRLVPQKQASVAKKKKLEKEEEEIRASVRDKSPVKKAKATARAKKPGFKK
On to B1, for which the “stoichiometry N” value in the series “cross-linking” was 5 and 10.

B2: His-tagged human NPM3 (natural protein)
chain: MAAGTAAALAFLSQESRTRAGGVGGLRVPAPVTMDSFFFGCELSGHTRSFTFKVEEEDDAEHVLALTMLCLTEGAKDECNVVEVVARNHDHQEIAVPVANLKLSCQPMLSLDDFQLQPPVTFRLKSGSGPVRITGRHQIVTMSNDVSEEESEEEEEDSDEEEVELCPILPAKKQGGRP
As to B2, the “stoichiometry N” value with His-tagged human NPM1 was 4 NPM1 per NPM3 (NPM1:NPM3 4:1).
